# Patent publication US12612650B2, “Methods for improved homologous recombination and compositions thereof” (LIFE TECHNOLOGIES CORPORATION, priority 2017, dated 2026)
# Several values for one entry are separate records, joined by “and”; a condition that tells them apart may be missing. Identical values can stand only once. Marks after values point to notes of the source that are not given here.
# B1: puromycin-P2A-OFP: donor DNA, 1.4 kb: promoterless puromycin-P2A-OFP fragment with 35 nt homology arms to the beta-actin locus (nucleic acid)
# DNA: CACAGCGCGCCCGGCTATTCTCGCAGCTCACCATGACCGAGTACAAGCCCACAGTGCGGCTGGCCACCAGGGACGATGTGCCTAGAGCTGTGCGGACACTGGCCGCTGCCTTCGCCGATTACCCTGCCACCAGACACACCGTGGACCCCGACAGACACATCGAGAGAGTGACCGAGCTGCAGGAACTGTTTCTGACCAGAGTGGGCCTGGACATCGGCAAAGTGTGGGTGGCCGATGATGGCGCCGCTGTGGCTGTGTGGACAACCCCTGAGTCTGTGGAAGCCGGCGCTGTGTTCGCCGAGATCGGACCTAGAATGGCCGAGCTGAGCGGCTCTAGACTGGCTGCCCAGCAGCAGATGGAAGGCCTGCTGGCCCCCCACAGACCTAAAGAGCCTGCCTGGTTTCTGGCCACCGTGGGCGTGTCACCTGACCACCAGGGCAAGGGACTGGGATCTGCTGTGGTGCTGCCTGGCGTGGAAGCTGCTGAAAGGGCTGGCGTGCCCGCCTTCCTGGAAACAAGCGCCCCCAGAAACCTGCCCTTCTACGAGAGACTGGGCTTCACCGTGACCGCCGACGTGGAAGTGCCTGAGGGCCCTAGAACCTGGTGCATGACCAGAAAGCCTGGCGCCGGAAGCGGAGCTACTAACTTCAGCCTGCTGAAGCAGGCTGGAGACGTGGAGGAGAACCCTGGACCTAACCTGAGCAAAAACGTGAGCGTGAGCGTGTATATGAAGGGGAACGTCAACAATCATGAGTTTGAGTACGACGGGGAAGGTGGTGGTGATCCTTATACAGGTAAATATTCCATGAAGATGACGCTACGTGGTCAAAATTCCCTACCCTTTTCCTATGATATCATTACCACGGCATTTCAGTATGGTTTCCGCGTATTTACAAAATACCCTGAGGGAATTGTTGACTATTTTAAGGATTCGCTTCCCGACGCATTCCAGTGGAACAGACGAATTGTGTTTGAAGATGGTGGAGTACTAAACATGAGCAGTGATATCACATATAAAGATAATGTTCTGCATGGTGACGTCAAGGCTGAGGGAGTGAACTTCCCGCCGAATGGGCCAGTGATGAAGAATGAAATTGTGATGGAGGAACCGACTGAAGAAACATTTACTCCAAAAAACGGGGTTCTTGTTGGCTTTTGTCCCAAAGCGTACTTACTTAAAGATGGTTCCTATTACTATGGAAATATGACAACATTTTACAGATCCAAGAAATCTGGCCAGGCACCTCCTGGGTATCACTTTGTTAAGCATCGTCTCGTCAAGACCAATGTGGGACATGGATTTAAGACGGTTGAGCAGACTGAATATGCCACTGCTCATGTCAGTGATCTTCCCAAATTCGAAGCTGATGATGATATCGCCGCGCTCGTCGTCGACAACGG
# modifications: misc_feature 1..1402 Description of Unknown: Beta Actin sequence
# notes: donor DNA, 1.4 kb: promoterless puromycin-P2A-OFP fragment with 35 nt homology arms to the beta-actin locus
# Columns and labels:
# Type in all cases: cell-based, human
# LRRK2 genomic locus = test: Junction PCR and sequencing of clonal A549 cells, N-terminal tagging of LRRK2
# Experimental: (§1) 293FT or A549 cells were maintained in DMEM medium supplemented with 10% FBS. On the day of transfection, cells were detached from the culture flask and counted. For each electroporation, 1.5 μg of Cas9 protein and 360 ng of gRNA were added to Resuspension Buffer R to a final volume of 7 μl, but the total volume of Cas9 protein plus gRNA added was less than 1 μl. Upon mixing, the sample was incubated at room temperature for 5 to 10 minutes to form Cas9 RNPs complex. Meanwhile, aliquots of 1×10^6 cells were washed once with DPBS without Ca^2+ and Mg^2+ and the cell pellets were resuspended in 50 μl of Resuspension Buffer R. A 5 μl aliquot of cell suspension was then mixed with 7 μl of Cas9 RNPs, followed by addition of 1 μl indicated amount of donor DNA. 10 μl of cell suspension containing Cas9 RNP and donor was applied to NEON® electroporation (Thermo Fisher Scientific, cat. no. MPK5000) with voltage set at 1150V, pulse width set at 20 ms, and the number of pulses set at 2, respectively. The electroporated cells were transferred to a 48-well plate containing 0.5 ml culture media. Samples without either gRNA or donor DNA served as controls. At 48 hours post transfection, the cells were analyzed by flow cytometry. Alternatively, the genomic loci were PCR-amplified with the corresponding primers. The resulting PCR fragments were analyzed using the GENEART® Genomic Cleavage Detection assay. The edited cells were further subjected to limiting dilution, followed by clonal cell isolation. The clonal cells were characterized by PCR amplification of both the N- and C-terminal junctions and sequencing. The sequencing data were analyzed using VECTOR NTI ADVANCE® 11.5 software (Thermo Fisher Scientific).
# Besides beta-actin, we also evaluated a different protein in a different cell line. LRRK2 protein is related to Parkinson's disease with a molecular weight of approximately 280 kd. A gRNA was designed to target the LRRK2 genomic locus near the start codon. Approximately 35 nt homology arms were added to a sequence-verified promoterless puromycin-P2A-EmGFP DNA fragment via PCR amplification. The Cas9 RNP and donor DNA were co-delivered into A549 cells via NEON® electroporation using 1050 volts, 30 milliseconds and 2 pulses. Because LRRK2 is relatively low abundant protein, we were not able to detect EmGFP signal inside the cells. […] To examine the integration efficiency, the cells were treated with 0.75 μg/ml puromycin for 7 days at 48 hours post transfection, followed by limiting dilution and clonal cell isolation. The junctions were analyzed by PCR using one inner primer and one outer primer, or a pair of outer primers. The resulting PCR products were analyzed by sequencing to determine the precision of integration. […]
# beta-actin locus = test: Junction PCR and sequencing of clonal 293FT cells, integration at beta-actin locus
# Experimental: as §1
# To examine the identity of integration sites, cells transfected with Cas9 RNP and donor DNA were subjected to puromycin selection, limiting dilution, and clonal cell isolation. A total of 48 colonies were randomly picked for junction PCR analysis. […] All the other 47 colonies gave rise to PCR products for both N- and C-terminal junctions when one outer primer and one inner primer were used. The PCR product was also observed when a pair of outer primers was used with the size of about 420 bp, which corresponded to the genomic DNA fragment without an insert. The reason why a large PCR product containing the insert was not observed was because the smaller DNA fragment without the insert was preferentially amplified. […] The other 18% of clonal cells also contained the insert but had mutations at the junction areas (FIG. 3A(2)). Most of the mutations were deletion and insertion. Sometimes a duplicate sequence of a partial or full-length homology arm was inserted at the junction. At the C-terminal junction, approximately 78% of the clonal cells harbored precise HDR (FIG. 3B(1)) whereas the other 22% of cells had Indel formation at the junction (FIG. 3B(2)). Rarely, a relatively large piece of donor DNA (up to 165 nt) was deleted at the C-terminal junction. Overall, all the clonal cells contained one copy of donor DNA at the right genomic locus in one of the alleles with 68% of cells harbored precise HDR at both N- and C-termini and 32% of cells harbored imperfect HDR at either N- or C-terminus or both. […] Instead, approximately 80% of the clones had one “A” insertion at the Cas9 cleavage site and 20% of the clones harbored more than 2 nt deletion. Only one wild type clone was detected at the second allele (FIG. 3C). Most of the clones expressed both wild type beta-actin and OFP fusion of beta-actin as confirmed by Western Blot analysis.
# To characterize each clonal cell in the stable pool, we performed limiting dilution and clonal cell isolation. The junctions of integration were analyzed by PCR and sequencing. As depicted in FIGS. 8B and 8C, approximately 88% of clonal cells harbored precise integration at N-terminal junction whereas 12% of clonal cells had some extra sequences inserted at the junction. […]
# [1] = test system: genomic locus of beta-actin; test: OFP-positive cells by flow cytometry after electroporation of Cas9 RNP and donor DNA into 293FT cells
# Experimental: as §1
# To evaluate the strategy of tagging endogenous protein, we fused the OFP gene to the N-terminus of beta-actin. Beta-actin is one of the most abundant proteins in eukaryotes, so it is easy to monitor using fluorescence microscopy. A gRNA was designed and synthesized to target the genomic locus of beta-actin near the ATG start codon (Table 12) and then complexed with Cas9 nuclease to form RNPs. The relevant 35 nt homology arms were added to a sequence-verified promoterless puromycin-P2A-OFP DNA fragment by PCR amplification. The resulting donor PCR fragments were purified using PureLink™ PCR Purification Kit and then concentrated using a speed-vac to a final concentration of around 1 μg/μl. To examine the effect of donor dosage on HDR efficient, we kept the amount of Cas9 RNP constant and varied the amount of donor DNA. The Cas9 RNP and donor DNA were transfected into 293 FT via electroporation. At 48 hours post transfection, the cells were analyzed by fluorescence microscope. When the cells were transfected with Cas9 RNP alone or Cas9 protein with donor DNA, no OFP-positive cells were detected, whereas OFP-positive cells were observed when cells were transfected with Cas9 RNP and donor DNA. The percentages of OFP-positive cells were determined by flow cytometric analysis. Without selection, the percentage of OFP-positive cells increased from approximately 5% to 20% when the amount of donor DNA increased from 25 ng to 500 ng (FIG. 2A). The optimal amount of donor DNA was around 500 ng per reaction. On the other hand, after treatment of transfected cells with 1 μg/ml puromycin for 7 days, approximately 80% of cells were OFP-positive. There was no significant difference in the percentage of OFP-positive cells between different amounts of donor DNA (FIG. 2A). Next, we examined the effect of homology arm length on HDR efficiency. Various lengths of homology arms were added to the promoterless puromycin-P2A-OFP DNA fragment by PCR amplification. As depicted in FIG. 2B, when the homology arm length increased from 12 nt to 80 nt, the percentage of OFP-positive cells increased and then plateaued at around 35 nt.
# Traditionally, a plasmid donor was used to incorporate large DNA molecules into the genome. […]
# [2] = LRRK2, N-terminus, A549 clonal cells
# [3] = Beta-actin, N-terminus, 293FT clonal cells
Molecule,Efficiency at allele 1 HDR/Indel (LRRK2 genomic locus; [2]),Efficiency at allele 1 Precise HDR (LRRK2 genomic locus; [2]),"Efficiency at allele 2 No HDR/Indel (LRRK2 genomic locus; LRRK2, N-terminus, A549 clonal cells, 7 nt deletion)",integration efficiency (LRRK2 genomic locus; all 86 colonies contained at least one copy of the insert),Efficiency at allele 1 HDR/Indel (beta-actin locus; [3]),Efficiency at allele 2 No HDR/Indel (beta-actin locus; [3]),Efficiency at allele 2 Precise HDR (beta-actin locus; [3]),"clonal cells with Indel formation / small mutations at the C-terminal junction (beta-actin locus; beta-actin locus, 293FT)","clonal cells with mutations or extra sequences at the N-terminal junction (beta-actin locus; beta-actin locus, 293FT)","clonal cells with precise HDR / correct junction at the C-terminal junction (beta-actin locus; beta-actin locus, 293FT)","clonal cells with precise HDR at the N-terminal junction (beta-actin locus; beta-actin locus, 293FT)",clones wild type (wt) (beta-actin locus; second allele),clones with more than 2 nt deletion (beta-actin locus; second allele (no insert)),clones with one 'A' insertion at the Cas9 cleavage site (beta-actin locus; second allele (no insert)),percentage of OFP-positive cells ([1]; after 1 μg/ml puromycin for 7 days),% of functional Cells ([1]; determined by flow cytometry),homology arm length at which percentage of OFP-positive cells plateaued ([1]; homology arm length 12 nt to 80 nt),optimal amount of donor DNA ([1]; without selection),"percentage of OFP-positive cells ([1]; without selection, 25 ng donor DNA, 48 hours post transfection)","percentage of OFP-positive cells ([1]; without selection, 500 ng donor DNA, 48 hours post transfection)"
"puromycin-P2A-EmGFP: donor DNA, 1.4 kb: promoterless puromycin-P2A-EmGFP fragment with approximately 35 nt homology arms to LRRK2 locus",0%,100%,80%,100%,,,,,,,,,,,,,,,,
B1,,,,,32%,100%,0%,22%,18%,approximately 78%,approximately 82%,2%,18% and 20%,approximately 80%,approximately 80%,80%^a,around 35 nt,around 500 ng per reaction,approximately 5%,~20%
